In patent US10357572B2, “Prodrugs activated by caspase” (priority 2014, dated 2019):
Starred links: 1 amine or outer side, 2 acyl side, 3 side chain; linkers in the order of their positions; H or OH if unused. Non-standard residues stand in square brackets, D forms with d. Residues, ends and D or L forms follow the SMILES beside them. *: point of attachment. Doxorubicin(3'-N) = COc1cccc2c1C(=O)c1c(O)c3c(c(O)c1C2=O)C[C@@](O)(C(=O)CO)C[C@@H]3O[C@H]1C[C@H](N*)[C@H](O)[C@H](C)O1; Hexanoyl(6-maleimido) = O=C1C=CC(=O)N1CCCCCC(=O)*; PABC = O=C(OCc1ccc(N[*:1])cc1)[*:2]

Legend:
[1] = Plasma concentration-time curve of doxorubicin content after intravenous administration to rats; format: in vivo; conditions: Sprague-Dawley rats, molar equivalent to 1 mg/kg of doxorubicin
Method: The pharmacokinetic profile of the maleimide-KGDEVD-PABC-doxorubicin (SEQ ID NO: 10) and AcKGDEVD-PABC-doxorubicin (SEQ ID NO: 32) conjugates was determined after intravenous administration to Sprague-Dawley rats at a dose of molar equivalent to 1 mg/kg of doxorubicin (FIG. 25). Blood samples were collected at 5, 15, 30, 60, 90 minutes and then 2, 4, 8, 12, 24, 48, 72, 96, 144 hours post-injection (500 μl each). The collected blood samples were stabilized immediately with sodium citrate and centrifuged for 15 min at 2000×g in a refrigerated centrifuge to separated plasma. The plasma samples (200 μl) were transferred to a 96-well black microplate and the intrinsic fluorescence of doxorubicin was read at Ex 485 nm/Em 590 nm. A standard was prepared in fresh plasma and fluorescence was read as described above.

[2] = Plasma concentration-time curves of doxorubicin content after intravenous administration to monkeys; format: in vivo; conditions: Cynomolgus monkeys, molar equivalent to 1 mg/kg of doxorubicin
Method: The pharmacokinetic profiles of the maleimide-KGDEVD-PABC-doxorubicin (SEQ ID NO: 10) and AcKGDEVD-PABC-doxorubicin (SEQ ID NO: 32) conjugates were determined after intravenous administration to Cynomolgus monkeys at a dose of molar equivalent to 1 mg/kg of doxorubicin (FIG. 28). Blood samples were collected at 15, 30, 45, 60, 90 minutes and then 2, 3, 4, 6, 8, 12, 24, 48, 72, 96, 120, 144, 168 hours post-injection (500 μl each). The collected blood samples were stabilized immediately with sodium citrate and centrifuged for 15 min at 2000×g in a refrigerated centrifuge to separate the plasma. The plasma samples (200 al) were transferred to a 96-well black microplate and the intrinsic fluorescence of doxorubicin was read at Ex 485 nm/Em 590 nm. A standard was prepared in fresh plasma and the fluorescence was read as described above.

[3] = target: T1, recombinant human caspase-3 (Homo sapiens, UniProt P42574); experiment: HPLC monitored cleavage study by recombinant human caspase-3; format: biochemical; conditions: incubated with purified caspase-3, HPLC
T1 sequence (P42574 29-175 limits assumed): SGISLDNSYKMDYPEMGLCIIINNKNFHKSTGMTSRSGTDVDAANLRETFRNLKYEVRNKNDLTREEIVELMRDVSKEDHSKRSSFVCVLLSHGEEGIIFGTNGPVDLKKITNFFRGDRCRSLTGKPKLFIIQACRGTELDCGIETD
T1 sequence (P42574 176-277 limits assumed): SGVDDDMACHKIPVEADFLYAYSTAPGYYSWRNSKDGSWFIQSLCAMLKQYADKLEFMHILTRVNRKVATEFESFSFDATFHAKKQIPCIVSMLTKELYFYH
From the text: Example 21—HPLC Monitored Cleavage Studies of Human Serum Albumin-Bound Maleimide-KGDEVD-PABC-Doxorubicin (SEQ ID NO: 10) (HSA-KGDEVD-PABC-Doxorubicin (SEQ ID NO: 31)) by Recombinant Human Caspase-3

## COc1cccc2c1C(=O)c1c(O)c3c(c(O)c1C2=O)C[C@@](O)(C(=O)CO)C[C@@H]3O[C@H]1C[C@H](NC(=O)OCc2ccc(NC(=O)[C@H](CC(=O)O)NC(=O)[C@@H](NC(=O)[C@H](CCC(=O)O)NC(=O)[C@H](CC(=O)O)NC(=O)CNC(=O)[C@H](CCCCN)NC(C)=O)C(C)C)cc2)[C@H](O)[C@H](C)O1 [AcKGDEVD-PABC-doxorubicin, Ac-Lys-Gly-Asp-Glu-Val-Asp-PABC-doxorubicin] (Ac-KGDEVD[PABC]-{Doxorubicin(3'-N)})
[1]
  time until plasma concentration decreased below the detection limit (5 ng/ml): ≤ 4 h
[1]; rat, in vivo, plasma fluorescence, read-out: terminal half-life
  half-life: 30 min
[2]
  time until plasma concentration decreased below the detection limit (5 ng/ml): ≤ 6 h
[2]; plasma fluorescence
  terminal half-life: 60 min

## COc1cccc2c1C(=O)c1c(O)c3c(c(O)c1C2=O)C[C@@](O)(C(=O)CO)C[C@@H]3O[C@H]1C[C@H](NC(=O)OCc2ccc(NC(=O)[C@H](CC(=O)O)NC(=O)[C@@H](NC(=O)[C@H](CCC(=O)O)NC(=O)[C@H](CC(=O)O)NC(=O)CNC(=O)[C@H](CCCCNC(=O)CCCCCN3C(=O)C=CC3=O)NC(C)=O)C(C)C)cc2)[C@H](O)[C@H](C)O1 [maleimide-KGDEVD-PABC-doxorubicin, Ac-Lys(EMC)-Gly-Asp-Glu-Val-Asp-PABC-doxorubicin] (Ac-K(Hexanoyl(6-maleimido))GDEVD[PABC]-{Doxorubicin(3'-N)})
[1]
  time the conjugate lasted in plasma after administration: more than 6 days
[2]
  time the plasma concentration was detectable after administration: more than 7 days

## HSA-maleimide-KGDEVD-PABC-doxorubicin
[3]
  time until free doxorubicin was completely liberated from the conjugate: ≤ 1 h
